Laboratory results taken from patent US20210371492A1 (INNOVATIVE CELLULAR THERAPEUTICS, published 2021).
Substitutions are numbered along the chain they refer to.

B1: R8C11VH/L4G6VK-mIgG2a (antibody, V domains shown)
VH: QVQLQQWGAGLLKPSETLSLTCAVFGGSFSGYYWSWIRQPPGKGLEWIGEINHRGNINDNPSLKSRVTISVDTSKNQFALKLSSVTAADTAVYYCARERGYSFGNYDHWGQGTLVTVSS
VL: EIVMTQSPATLSVSPGERATLSCRASQTVTRNLAWYQQKPGQAPRLLIYGASTRATGIPARFSGSGSGTEFTLTIGSLQSEDFAVYYCQQYKSWPRSFGQGTNVEIK
notes: Whole antibody with human variable regions and mouse constant regions (pMABG2a, pMABK); also called R8C11+L4G6
B2: R7C8+L1E2 (Fab clone from the recombinant human phage antibody library) (Fab, V domains shown)
VH: B1 VH with S102T, F103Y, D107E
VL: B1 VL with T30N, S93T, S97T
B3: R8C11VH/L3B4VK-mIgG2a (antibody, V domains shown)
VH: B1 VH
VL: B1 VL with S97T
notes: Whole antibody with human variable regions and mouse constant regions (pMABG2a, pMABK); also called R8C11+L3B4

Tests used:
[1] = target: T1, GCC-His fusion protein (recombinant extracellular region of GCC with His tag) (human, UniProt P25092 24-430); experiment: BIAcore (SPR), GCC-His as mobile phase
T1 construct: also called GUC2C-His; recombinant GCC extracellular domain

[2] = target: T1, GCC-His fusion protein (recombinant …); experiment: ELISA, GUC2C-his coat 3ug/ml, antibody titrated, OD490
[3] = target: T1, GCC-His fusion protein (recombinant …); experiment: phage-ELISA, Fab phage library screened on GCC-His

Binder	Kd [1] [nM]	EC50 (read off the curve) [2] [nM]	binding result [3]
B1	11.8	~2	
B2			binds
B3	11.2		
